This note sets out measurements from patent US20230256092A1, “COMBINED USE OF ANTI-CCR8 ANTIBODY AND CHEMOTHERAPEUTIC AGENT” (Shionogi & Co., Ltd., priority 2020, published 2023).

In one experiment the target is T1, human CCR4 (Homo sapiens, UniProt P51679).
T1 construct: expressed in transfected cells; host or cells: Expi293 cells, pcDNA 3.4 vector, transient
T1 sequence (P51679 1-360): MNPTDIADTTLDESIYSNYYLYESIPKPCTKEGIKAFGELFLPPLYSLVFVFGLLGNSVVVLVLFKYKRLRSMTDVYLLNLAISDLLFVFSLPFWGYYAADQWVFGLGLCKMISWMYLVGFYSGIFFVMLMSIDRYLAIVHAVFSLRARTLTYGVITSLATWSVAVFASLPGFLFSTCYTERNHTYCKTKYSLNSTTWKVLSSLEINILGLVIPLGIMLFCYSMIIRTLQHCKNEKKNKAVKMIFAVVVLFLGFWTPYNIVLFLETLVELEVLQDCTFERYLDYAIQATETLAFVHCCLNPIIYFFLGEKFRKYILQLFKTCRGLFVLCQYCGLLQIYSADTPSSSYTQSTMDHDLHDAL
In words: Antigen-binding test on transiently expressing Expi293 cells. Also noted: key: an antibody having significantly reduced binding activity was indicated as A; an antibody having binding activity of the detection limit or less was indicated as x; The blank column means that it exhibits the same binding activity as the wild-type human CCR8 (hCCR8). The note with it: 5, 0.5 and 0.05 ug/mL, in comparison to wild-type hCCR8. An excerpt: (§1) The gene encoding the full length of human CCR8 (UniProtKB/Swiss-Prot: P51685, SEQ ID NO: 1), the gene encoding the full length of human CCR4 (UniProtKB/Swiss-Prot: P51679, SEQ ID NO: 48) and the gene encoding the full length of mouse CCR8 (UniProtKB/Swiss-Prot: P56484, SEQ ID NO: 39) were cloned into pcDNA 3.4 vectors, respectively. These vectors were used for transfection to produce Expi293 cells transiently expressing human CCR8, human CCR4, or mouse CCR8. These cells were reacted with a dilution series of the purified antibodies of each clone, and the binding properties thereof were evaluated by detection with Alexa488-labeled anti-mouse IgG antibody (manufactured by Thermo Fisher Scientific). As a result, every antibody bound to human CCR8, but not to human CCR4 and mouse CCR8 at all.

A further experiment has as its target T2, mouse CCR8 (Mus musculus, UniProt P56484).
T2 construct: expressed in transfected cells; host or cells: Expi293 cells, pcDNA 3.4 vector, transient
T2 sequence (P56484 1-353): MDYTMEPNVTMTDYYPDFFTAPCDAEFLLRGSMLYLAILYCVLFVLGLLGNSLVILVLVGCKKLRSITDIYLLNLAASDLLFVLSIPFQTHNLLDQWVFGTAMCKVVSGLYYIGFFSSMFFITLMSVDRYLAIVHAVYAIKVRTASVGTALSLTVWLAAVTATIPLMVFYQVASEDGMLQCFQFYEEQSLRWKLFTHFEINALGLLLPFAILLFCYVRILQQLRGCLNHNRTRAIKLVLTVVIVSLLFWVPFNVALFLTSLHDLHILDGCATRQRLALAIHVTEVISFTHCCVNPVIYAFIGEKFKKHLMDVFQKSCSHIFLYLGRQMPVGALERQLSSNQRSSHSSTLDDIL
The experiment is described as above. Also noted: key: an antibody having significantly reduced binding activity was indicated as A; an antibody having binding activity of the detection limit or less was indicated as x; The blank column means that it exhibits the same binding activity as the wild-type human CCR8 (hCCR8). Particulars: 5, 0.5 and 0.05 ug/mL, in comparison to wild-type hCCR8.
Text: as §1

A further experiment addresses T3, loop2 hCCR4-hCCR8 (Homo sapiens, UniProt P51685, A175Y/D178R/F186K/F197L/F200L/G179N/I196V/K193T/K201E/L181T/L192T/M202I/N188S/N199S/Q173T/Q182Y/Q189L/Q190N/S176T/S185T/T191S/T198S/V174C/V180H/Y172S/Y184K).
T3 construct: expressed in transfected cells; host or cells: Expi293 cells (method similar to that for the wild type)
The experiment in a line: Antigen-binding test, chimera. Particulars: 5, 0.5 and 0.05 ug/mL, in comparison to wild-type hCCR8.

Another experiment has as its target T4, hCCR8 (I20A) (Homo sapiens, UniProt P51685, I20A).
T4 construct: expressed in transfected cells; host or cells: Expi293 cells (method similar to that for the wild type)
In words: Antigen-binding test, human CCR8 point mutant. Particulars: in comparison to wild-type hCCR8. An excerpt:
(§2) Further, to analyze in more detail the N-terminal region that is an epitope region common to all clones having strong neutralization, the human CCR8 point mutants shown in Table 2 were produced. […] It is thus considered that the neutralizing antibodies recognize Y at position 17. In addition, although clone No. 8F7 is only shown in Table 2, plural other neutralizing antibodies had reduced binding activity to the mutant in which I at position 20 of human CCR8 is substituted with A (hCCR8 (I20A)). It is thus considered that some neutralizing antibodies have stereo-structural recognition to bind to isoleucine at position 20.

Another experiment concerns the target T5, hCCR8 (I30A) (Homo sapiens, UniProt P51685, I30A).
T5 construct: expressed in transfected cells; host or cells: Expi293 cells (method similar to that for the wild type)
In words: Antigen-binding test, human CCR8 point mutant. Particulars: in comparison to wild-type hCCR8.
Text: as §2

The target of another experiment is T6, hCCR8 (K35A) (Homo sapiens, UniProt P51685, K35A).
T6 construct: expressed in transfected cells; host or cells: Expi293 cells (method similar to that for the wild type)
In words: Antigen-binding test, human CCR8 point mutant. The note with it: in comparison to wild-type hCCR8.
Text: as §2

B1: 8F7: mouse anti-human CCR8 neutralizing antibody; light chain SEQ ID NO: 33, heavy chain SEQ ID NO: 34 (antibody, V domains shown)
VH: EVQLVESGGRLVQPKRSLKLSCAASGFTFNPYAMYWIRQAPGQGLEWVARIRSKSNNYATYYADSVKDRFTISRDDSQSMLYLQMNNLKTEDTAMYYCVRGHQGTMDYWGQGTSVTVSS
VL: DIVMTQAAPSVPVTPGESVSISCRSSKSLLHSNGNTYLYWFLQRPGQSPQLLTYRMSNLASGVPDRFSGSGSGTAFTLRISRVEAEDVGVYYCMQHLEYPFTFGGGTKLEIKR
modifications: 8F7 VH; 8F7 VL
On to B1, for which, in the experiment with human CCR4, the “binding activity, hCCR4” value was “x”. In addition, the “binding activity, mCCR8” value with mouse CCR8 was “x”. Besides, the “binding activity, loop2 hCCR4-hCCR8” value with loop2 hCCR4-hCCR8 was “Δ”. In addition, the “binding activity, hCCR8 (I20A)” value with hCCR8 (I20A) was “Δ”. Moreover, the “binding activity, hCCR8 (I30A)” value with hCCR8 (I30A) is “Δ”. In addition, the “binding activity, hCCR8 (K35A)” value with hCCR8 (K35A) was “Δ”.
